Test results as given in article PMC8764033, “Single-molecule analysis of specificity and multivalency in binding of short linear substrate motifs to the APC/C” (Nature Communications, 2022).
Several values for one entry are separate records, joined by “and”; a condition that tells them apart may be missing. Equal values may be shown once. Read-outs that look alike come from different tables or passages of the source.

Molecular target: T1, APC/C^Cdh1 (Saccharomyces cerevisiae, UniProt P53068+P53197)
T1 construct: APC/C was purified from yeast cells; made in house; host or cells: APC/C from S. cerevisiae W303 strain NHY13 (Cdc16-TAP, Apc1-GFP, cdh1 deleted); Cdh1 from Sf9 (baculovirus)
T1 sequence (P53068 whole entry, looked up): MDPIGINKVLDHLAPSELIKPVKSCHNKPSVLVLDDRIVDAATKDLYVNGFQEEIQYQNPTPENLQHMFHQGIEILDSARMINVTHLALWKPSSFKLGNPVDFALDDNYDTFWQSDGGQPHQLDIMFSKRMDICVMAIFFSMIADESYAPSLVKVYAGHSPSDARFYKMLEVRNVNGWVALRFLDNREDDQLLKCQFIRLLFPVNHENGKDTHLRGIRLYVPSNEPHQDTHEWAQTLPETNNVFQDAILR
T1 sequence (P53197 whole entry, looked up): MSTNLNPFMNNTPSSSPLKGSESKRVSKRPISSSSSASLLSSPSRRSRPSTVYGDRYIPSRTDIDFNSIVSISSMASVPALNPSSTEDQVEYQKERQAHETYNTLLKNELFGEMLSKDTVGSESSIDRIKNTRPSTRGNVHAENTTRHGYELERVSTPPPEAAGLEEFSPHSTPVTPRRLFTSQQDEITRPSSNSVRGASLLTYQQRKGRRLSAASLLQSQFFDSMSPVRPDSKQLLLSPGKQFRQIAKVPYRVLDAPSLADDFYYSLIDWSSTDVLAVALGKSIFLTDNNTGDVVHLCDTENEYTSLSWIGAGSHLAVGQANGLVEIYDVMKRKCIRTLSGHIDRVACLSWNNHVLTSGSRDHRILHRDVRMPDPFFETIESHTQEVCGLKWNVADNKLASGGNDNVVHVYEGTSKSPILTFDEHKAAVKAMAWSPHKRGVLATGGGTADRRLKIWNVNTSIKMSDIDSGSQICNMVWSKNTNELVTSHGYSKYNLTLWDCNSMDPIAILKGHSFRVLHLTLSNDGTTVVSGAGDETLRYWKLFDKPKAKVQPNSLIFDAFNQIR
Assay type: binding
Details: for mean dwell time: representative of two independent experiments, ± SE, ligand ≤1 nM, buffer C + BSA
Procedure: Yeast strains were derivatives of W303 and are listed in Supplementary Table 2. For APC/C purification, we used a strain carrying Cdc16-TAP and lacking Cdh1 (DOM1126); in most experiments, the strain also carried Apc1-GFP (NHY13). Yeast were grown in YPD media to OD600 = 0.8, collected and flash-frozen. Cells were lysed by bead beating in lysis buffer A (50 mM HEPES pH 7.5, 150 mM KCl, 10% glycerol, 0.2% Triton X-100, 63 µM B-glycerophosphate, 48 µM sodium fluoride, 1 µg ml^−1 pepstatin A, 1 µg ml^−1 leupeptin, 1 µg ml^−1 aprotinin, 1 mM PMSF, 1 mM DTT, 0.5 mM EDTA) and APC/C was purified using magnetic IgG beads. The beads were washed using wash buffer A (20 mM HEPES pH 7.5, 150 mM KCl, 10% Glycerol, 0.05% Triton X-100). After incubation with purified Cdh1 or Cdc20, the APC/C was cleaved off the beads with TEV protease in wash buffer A with 0.05% Tween-20 (for single-molecule studies) or 0.05% Triton X-100 (for ensemble assays such as ubiquitylation) and used immediately.
For all SMOR experiments, 24 × 50 mm high precision glass coverslips (Bioscience Tools) and drilled microscope slides were passivated with a combination of PEG and PEG-biotin (coverslips) or PEG only (slides) following a previously published protocol for SiMPull[31]. Reaction chambers (~20 µl) were created using double-sided tape and epoxy. Protein was immobilized on the surface with 0.2 mg ml^−1 NeutrAvidin in buffer C (20 mM HEPES pH 7.5, 150 mM KCl, 10% glycerol, 0.05% Tween-20, 1 mM DTT). Excess NeutrAvidin was washed away and incubated with either biotin-conjugated mouse monoclonal anti-Strep-Tag II antibody (LSBio, Cat. No. LS-C203632-100) or biotin-conjugated rabbit polyclonal anti-GFP antibody (Rockland, Cat. No. 600-406-215) diluted in buffer C + BSA (0.1 mg ml^−1; Molecular Biology Grade Bovine Serum Albumin). Activator WD40 and activated APC/C (typically 50 µl containing about 65 ng APC/C, of which only a small fraction is immobilized on the glass) were immobilized using anti-Strep-Tag II, while APC/C alone was immobilized with anti-GFP. SMOR results were similar when performed in the buffer (wash buffer B) used in polarization anisotropy.
To capture dynamic protein–protein interactions, dye-labeled substrate diluted in buffer C + BSA was added to the chamber containing immobilized proteins. Interactions were imaged by TIRF microscopy as described below. For optimal signal-to-noise ratio, peptide concentration was no greater than 1 nM. Protein substrates included Hsl1 aa 667–872 and a C-terminal HaloTag followed by a TAP tag, and were produced by translation in rabbit reticulocyte lysates using TnT Quick Coupled Transcription/Translation System (Promega) (see Supplementary Table 5 for plasmids). Protein was purified with magnetic IgG beads and labeled on the bead with JF549 or JF646 dye so that unbound dye could be washed away. Purified dye-labeled protein was then cleaved from the beads using TEV protease. Before adding substrate to the reaction chamber, oxygen scavenging reagents were added (10 nM protocatechuate-3,4-dioxygenase, 2.5 mM protocatechuic acid, and 1 mM Trolox)[41]. A detailed description of the SMOR analysis pipeline is found in Supplementary Note 1.
Microscopy was performed with a Nikon Eclipse TE2000-E with Perfect Focus with a 100 × 1.49na oil, Apo TIRF DIC N2, 0.13-0.2, WD0.12 objective. Movies were recorded using the Andor iXon DU-897E-CSO. For visualizing GFP-tagged protein, a 491 nm laser was used with an ET525/50 (Chroma) filter for emission. For visualizing JF549-labeled substrate, a 561 nm laser was used with an ET595/50 (Chroma) filter for emission. For visualizing all Cy5-labeled peptides and JF646-labeled substrates, a 640 nm laser was used with an ET685/70 filter (Chroma) for emission. Initially, for each substrate tested, we acquired movies at multiple intervals to deduce the optimal interval to decrease bleaching. µManager version 2.0 was used to control the microscope and record time-lapse movies.

B1: Hsl1^Halo KEN & D: Hsl1 fragment (amino acids 667–872) with C-terminal HaloTag, JF549-labeled (protein)
chain: QNSASKRSLYSLQSISKRSLNLNDLLVFDDPLPSKKPASENVNKSEPHSLESDSDFEILCDQILFGNALDRILEEEEDNEKERDTQRQRQNDTKSSADTFTISGVSTNKENEGPEYPTKIEKNQFNMSYKPSENMSGLSSFPIFEKENTLSSSYLEEQKPKRAALSDITNSFNKMNKQEGMRIEKKIQREQLQKKNDRPSPLKPIQ
modifications: JF549 or JF646 dye covalently bound to the HaloTag; left off: HaloTag, C-terminal, kept | TAP, C-terminal, cleaved
notes: Hsl1 fragment (amino acids 667–872) with C-terminal HaloTag, JF549-labeled
  Dwell Time: 300 s
  fold increase in affinity/dwell time, APC/C^Cdh1 vs Cdh1 alone: 6 fold
  mean dwell time: 321 ± 14 s and 321 s
Supplementary Table 1, replicate 1 (movie listed first)
  Dwell Time: 321.161 ± 14.186 s
Supplementary Table 1, replicate 2 (movie listed second)
  Dwell Time: 268.262 ± 10.979 s
Listed as Hsl1
  mean dwell time: over 300 s
Listed as Hsl1 fragment
  mean dwell time: 321 ± 14 s
